According to PMC8103725 (FASEB BioAdvances, 2021):

Target: HEG1–KRIT1 interaction (EGFP‐KRIT1 FERM domain binding to HEG1 cytoplasmic tail on beads) (Homo sapiens, UniProt O00522)
Assay: Flow cytometry bead assay for the HEG1–KRIT1 FERM domain interaction
Conditions: bead assay, compared with wild‐type KRIT1

Chain of HEG1–KRIT1 interaction (EGFP‐KRIT1 FERM domain binding to HEG1 cytoplasmic tail on beads) (O00522 417-736): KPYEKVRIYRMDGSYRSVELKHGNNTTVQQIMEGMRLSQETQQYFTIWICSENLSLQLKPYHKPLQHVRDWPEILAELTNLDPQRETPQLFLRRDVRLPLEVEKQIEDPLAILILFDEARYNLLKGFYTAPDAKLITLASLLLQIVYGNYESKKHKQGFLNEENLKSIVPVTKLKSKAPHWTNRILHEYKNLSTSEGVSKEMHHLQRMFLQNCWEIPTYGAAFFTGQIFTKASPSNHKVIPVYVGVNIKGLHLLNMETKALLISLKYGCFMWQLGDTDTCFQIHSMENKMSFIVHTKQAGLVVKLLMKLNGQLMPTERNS

B1: KRIT1 (L717,721A) mutant: EGFP‐KRIT1 FERM domain mutant with reduced affinity for HEG1 (protein)
chain: KPYEKVRIYRMDGSYRSVELKHGNNTTVQQIMEGMRLSQETQQYFTIWICSENLSLQLKPYHKPLQHVRDWPEILAELTNLDPQRETPQLFLRRDVRLPLEVEKQIEDPLAILILFDEARYNLLKGFYTAPDAKLITLASLLLQIVYGNYESKKHKQGFLNEENLKSIVPVTKLKSKAPHWTNRILHEYKNLSTSEGVSKEMHHLQRMFLQNCWEIPTYGAAFFTGQIFTKASPSNHKVIPVYVGVNIKGLHLLNMETKALLISLKYGCFMWQLGDTDTCFQIHSMENKMSFIVHTKQAGAVVKALMKLNGQLMPTERNS
modifications: left off: His6, N-terminal, state not stated | EGFP, N-terminal, kept
  binding to HEG1: dramatic reduction in binding
